From publication doi:10.1101/2024.10.15.618391
Values joined by “and” are separate entries in the source; they are usually repeats but may differ in a detail not shown here. Equal values may be shown once. Read-outs that look alike come from different tables or passages of the source.

Tests used:
Test in all cases: BLI
[1] = target: His6-SeSepF (Spiroplasma eriocheiris SepF) (Spiroplasma eriocheiris)
[2] = target: His6-SeSepF (Spiroplasma eriocheiris SepF) (Spiroplasma eriocheiris); remark: listed apart in the source
[3] = target: His6-SeSepF (Spiroplasma eriocheiris SepF) (Spiroplasma eriocheiris); remark: listed apart in the source

Kd [2] [nM]	Kd [3] [nM]	Substance	Kd [1]
		SeFtsZ L272E mutant (from UniProt A0A0H3XMR3 1-411) (natural protein)	980 nM and 700 nM
1040	53900	Spiroplasma eriocheiris FtsZ, His-tag removed (from UniProt A0A0H3XMR3 1-411) (natural protein)	1130 nM
